Five molecules from patent publication US20090131312A1 can be followed below.

This assay concerns the target human CXCR3 (human) (UniProt P49682). In words: cell-based or functional assay.
Sequence of UniProt P49682 (P49682 whole entry): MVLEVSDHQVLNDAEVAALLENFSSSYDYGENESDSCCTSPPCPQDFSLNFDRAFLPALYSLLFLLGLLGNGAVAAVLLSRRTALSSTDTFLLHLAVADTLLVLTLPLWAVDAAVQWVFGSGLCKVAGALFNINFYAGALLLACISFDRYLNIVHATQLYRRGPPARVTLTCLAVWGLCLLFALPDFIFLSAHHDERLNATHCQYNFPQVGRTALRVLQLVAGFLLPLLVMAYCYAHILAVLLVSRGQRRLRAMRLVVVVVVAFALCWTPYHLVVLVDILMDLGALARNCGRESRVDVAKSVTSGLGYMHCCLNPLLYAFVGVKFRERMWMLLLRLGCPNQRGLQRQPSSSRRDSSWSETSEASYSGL

Turning to recombinant human IP-10 (ligand), the phosphorylated ERK1/2 (immunoblot), fold induction over control levels; HMVEC, 2 min. (fold induction over control) came out at 0.333; the phosphorylated ERK1/2 (immunoblot), fold induction over control levels; HMVEC, 5 min. (fold induction over control) is 0.07; the phosphorylated ERK1/2 (immunoblot), fold induction over control levels; HMVEC, 15 min. (fold induction over control) was 0.382; the phosphorylated ERK1/2 (immunoblot), fold induction over control levels; HUVEC, 2 min. (fold induction over control) is 10.3. For the same molecule, the phosphorylated ERK1/2 (immunoblot), fold induction over control levels; HUVEC, 5 min. (fold induction over control) stood at 10.8; the phosphorylated ERK1/2 (immunoblot), fold induction over control levels; HUVEC, 15 min. (fold induction over control) came to 6.87; the phosphorylated ERK1/2 (immunoblot), fold induction over control levels; Pre-B-cells expressing human CXCR3, 2 min. (fold induction over control) is 1.03; the phosphorylated ERK1/2 (immunoblot), fold induction over control levels; Pre-B-cells expressing human CXCR3, 5 min. (fold induction over control) was found to be 0.921. For the same molecule, the phosphorylated ERK1/2 (immunoblot), fold induction over control levels; Pre-B-cells expressing human CXCR3, 15 min. (fold induction over control) was determined as 0.57.
As to “native PF4 with native I-TAC N-loop (ligand)”, the phosphorylated ERK1/2 (immunoblot), fold induction over control levels; HMVEC, 2 min. (fold induction over control) was determined as 0.915; the phosphorylated ERK1/2 (immunoblot), fold induction over control levels; HMVEC, 5 min. (fold induction over control) worked out at 1.06; the phosphorylated ERK1/2 (immunoblot), fold induction over control levels; HMVEC, 15 min. (fold induction over control) stood at 3.28; the phosphorylated ERK1/2 (immunoblot), fold induction over control levels; HUVEC, 2 min. (fold induction over control) came out at 4.13. The phosphorylated ERK1/2 (immunoblot), fold induction over control levels; HUVEC, 5 min. (fold induction over control) was found to be 5.68; the phosphorylated ERK1/2 (immunoblot), fold induction over control levels; HUVEC, 15 min. (fold induction over control) is 9.83; the phosphorylated ERK1/2 (immunoblot), fold induction over control levels; Pre-B-cells expressing human CXCR3, 2 min. (fold induction over control) amounted to 1.57; the phosphorylated ERK1/2 (immunoblot), fold induction over control levels; Pre-B-cells expressing human CXCR3, 5 min. (fold induction over control) was 1.16. Also, the phosphorylated ERK1/2 (immunoblot), fold induction over control levels; Pre-B-cells expressing human CXCR3, 15 min. (fold induction over control) worked out at 0.931.

B1: recombinant human MIG (ligand, UniProt Q07325 23-125, looked up)
C-X-C motif chemokine 9: TPVVRKGRCSCISTNQGTIHLQSLKDLKQFAPSPSCEKIEIIATLKNGVQTCLNPDSADVKELIKKWEKQVSQKKKQKNGKKHQKKKVLKVRKSQRSRQKKTT
For the molecule B1, the phosphorylated ERK1/2 (immunoblot), fold induction over control levels; HMVEC, 2 min. (fold induction over control) stood at 1.56; the phosphorylated ERK1/2 (immunoblot), fold induction over control levels; HMVEC, 5 min. (fold induction over control) is 1.13; the phosphorylated ERK1/2 (immunoblot), fold induction over control levels; HMVEC, 15 min. (fold induction over control) came to 1.31; the phosphorylated ERK1/2 (immunoblot), fold induction over control levels; HUVEC, 2 min. (fold induction over control) amounted to 5.35. The phosphorylated ERK1/2 (immunoblot), fold induction over control levels; HUVEC, 5 min. (fold induction over control) was 6.96; the phosphorylated ERK1/2 (immunoblot), fold induction over control levels; HUVEC, 15 min. (fold induction over control) came to 5.76; the phosphorylated ERK1/2 (immunoblot), fold induction over control levels; Pre-B-cells expressing human CXCR3, 2 min. (fold induction over control) came to 0.795; the phosphorylated ERK1/2 (immunoblot), fold induction over control levels; Pre-B-cells expressing human CXCR3, 5 min. (fold induction over control) came to 0.842. Besides, the phosphorylated ERK1/2 (immunoblot), fold induction over control levels; Pre-B-cells expressing human CXCR3, 15 min. (fold induction over control) worked out at 1.76.

B2: recombinant human I-TAC (ligand, UniProt O14625 22-94, looked up)
C-X-C motif chemokine 11: FPMFKRGRCLCIGPGVKAVKVADIEKASIMYPSNNCDKIEVIITLKENKGQRCLNPKSKQARLIIKKVERKNF
In the case of B2, the phosphorylated ERK1/2 (immunoblot), fold induction over control levels; HMVEC, 2 min. (fold induction over control) stood at 0.205; the phosphorylated ERK1/2 (immunoblot), fold induction over control levels; HMVEC, 5 min. (fold induction over control) was determined as 0.137; the phosphorylated ERK1/2 (immunoblot), fold induction over control levels; HMVEC, 15 min. (fold induction over control) is 3.08; the phosphorylated ERK1/2 (immunoblot), fold induction over control levels; HUVEC, 2 min. (fold induction over control) stood at 1.65. For the same molecule, the phosphorylated ERK1/2 (immunoblot), fold induction over control levels; HUVEC, 5 min. (fold induction over control) is 1.36; the phosphorylated ERK1/2 (immunoblot), fold induction over control levels; HUVEC, 15 min. (fold induction over control) is 1.31; the phosphorylated ERK1/2 (immunoblot), fold induction over control levels; Pre-B-cells expressing human CXCR3, 2 min. (fold induction over control) came to 2.24; the phosphorylated ERK1/2 (immunoblot), fold induction over control levels; Pre-B-cells expressing human CXCR3, 5 min. (fold induction over control) amounted to 1.38. Further, the phosphorylated ERK1/2 (immunoblot), fold induction over control levels; Pre-B-cells expressing human CXCR3, 15 min. (fold induction over control) came out at 1.22.

B3: recombinant human PF4 (ligand, UniProt P02776 32-101, looked up)
Platelet factor 4: EAEEDGDLQCLCVKTTSQVRPRHITSLEVIKAGPHCPTAQLIATLKNGRKICLDLQAPLYKKIIKKLLES
For B3, the phosphorylated ERK1/2 (immunoblot), fold induction over control levels; HMVEC, 2 min. (fold induction over control) amounted to 1.01; the phosphorylated ERK1/2 (immunoblot), fold induction over control levels; HMVEC, 5 min. (fold induction over control) was 0.895; the phosphorylated ERK1/2 (immunoblot), fold induction over control levels; HMVEC, 15 min. (fold induction over control) came to 1.78; the phosphorylated ERK1/2 (immunoblot), fold induction over control levels; HUVEC, 2 min. (fold induction over control) was found to be 6.85. The phosphorylated ERK1/2 (immunoblot), fold induction over control levels; HUVEC, 5 min. (fold induction over control) amounted to 9.63; the phosphorylated ERK1/2 (immunoblot), fold induction over control levels; HUVEC, 15 min. (fold induction over control) was 11.5; the phosphorylated ERK1/2 (immunoblot), fold induction over control levels; Pre-B-cells expressing human CXCR3, 2 min. (fold induction over control) stood at 1.25; the phosphorylated ERK1/2 (immunoblot), fold induction over control levels; Pre-B-cells expressing human CXCR3, 5 min. (fold induction over control) is 1.33. Also, the phosphorylated ERK1/2 (immunoblot), fold induction over control levels; Pre-B-cells expressing human CXCR3, 15 min. (fold induction over control) is 1.45.
